The data set addresses T1, acetylated p53 peptides (p53-382/diAc), P04637.
T1 chain: RHKK

Here are results for two proteins from patent publication US20100178280.

B1: recombinant mouse Sirt7 protein (protein)
chain: MAAGGGLSRSERKAAERVRRLREEQQRERLRQVSRILRKAAAERSAEEGRLLAESEDLVTELQGRSRRREGLKRRQEEVCDDPEELRRKVRELAGAVRSARHLVVYTGAGISTAASIPDYRGPNGVWTLLQKGRPVSAADLSEAEPTLTHMSITRLHEQKLVQHVVSQNCDGLHLRSGLPRTAISELHGNMYIEVCTSCIPNREYVRVFDVTERTALHRHLTGRTCHKCGTQLRDTIVHFGERGTLGQPLNWEAATEAASKADTILCLGSSLKVLKKYPRLWCMTKPPSRRPKLYIVNLQWTPKDDWAALKLHGKCDDVMQLLMNELGLEIPVYNRWQDPIFSLATPLRAGEEGSHSRKSLCRSREEAPPGDQSDPLASAPPILGGWFGRGCAKRAKRKKVA
As to B1, the “deacetylation of acetylated p53 peptides in vitro (fluorometric deacetylation assay)” value is “p53 acetylated peptides were efficiently deacetylated by Sirt7 in vitro”; the “deacetylation of p53 peptides in vitro (fluorometric deacetylation assay)” value was “Sirt7 and Sirt1 deacetylate p53 peptides in vitro”.

B2: recombinant mouse Sirt1 protein (protein)
chain: MADEVALALQAAGSPSAAAAMEAASQPADEPLRKRPRRDGPGLGRSPGEPSAAVAPAAAGCEAASAAAPAALWREAAGAAASAEREAPATAVAGDGDNGSGLRREPRAADDFDDDEGEEEDEAAAAAAAAAIGYRDNLLLTDGLLTNGFHSCESDDDDRTSHASSSDWTPRPRIGPYTFVQQHLMIGTDPRTILKDLLPETIPPPELDDMTLWQIVINILSEPPKRKKRKDINTIEDAVKLLQECKKIIVLTGAGVSVSCGIPDFRSRDGIYARLAVDFPDLPDPQAMFDIEYFRKDPRPFFKFAKEIYPGQFQPSLCHKFIALSDKEGKLLRNYTQNIDTLEQVAGIQRILQCHGSFATASCLICKYKVDCEAVRGDIFNQVVPRCPRCPADEPLAIMKPEIVFFGENLPEQFHRAMKYDKDEVDLLIVIGSSLKVRPVALIPSSIPHEVPQILINREPLPHLHFDVELLGDCDVIINELCHRLGGEYAKLCCNPVKLSEITEKPPRPQKELVHLSELPPTPLHISEDSSSPERTVPQDSSVIATLVDQATNNNVNDLEVSESSCVEEKPQEVQTSRNVENINVENPDFKAVGSSTADKNERTSVAETVRKCWPNRLAKEQISKRLEGNQYLFVPPNRYIFHGAEVYSDSEDDVLSSSSCGSNSDSGTCQSPSLEEPLEDESEIEEFYNGLEDDTERPECAGGSGFGADGGDQEVVNEAIATRQELTDVNYPSDKS
In the case of B2, the “deacetylation of p53 peptides in vitro (fluorometric deacetylation assay)” value was “Sirt7 and Sirt1 deacetylate p53 peptides in vitro”.
